Source: article PMC10238393 (2023)

T1: LPHN2 olfactomedin-like (Olf) domain (human, UniProt O95490 135-394)
T1 chain: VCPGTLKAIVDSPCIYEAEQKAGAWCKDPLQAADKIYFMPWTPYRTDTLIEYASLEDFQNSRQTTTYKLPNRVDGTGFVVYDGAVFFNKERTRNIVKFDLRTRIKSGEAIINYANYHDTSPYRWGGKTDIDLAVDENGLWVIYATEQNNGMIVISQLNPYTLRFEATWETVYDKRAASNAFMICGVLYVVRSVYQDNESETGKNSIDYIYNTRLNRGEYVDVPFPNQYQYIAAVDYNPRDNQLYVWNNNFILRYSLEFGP

T2: LPHN2 Lec (Homo sapiens)
T2 chain: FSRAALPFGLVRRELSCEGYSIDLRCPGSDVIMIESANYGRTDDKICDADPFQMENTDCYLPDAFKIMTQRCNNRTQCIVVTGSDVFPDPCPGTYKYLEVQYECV


Key:
[1] = molecular target: LPHN2 Lec/Olf domain (human); experiment: ELISA; solid-phase binding assay: LPHN2 extracellular domain variants (100 nM) coated on MaxiSorp 96-well plates, 1 h room temperature, blocked with 1% BSA; 0.001-10 μM LRG1 forms added; detected with anti-LRG1 antibody and peroxidase-conjugated secondary antibody
[2] = molecular target: T1, LPHN2 olfactomedin-like (Olf) domain; experiment: ELISA
[3] = molecular target: T2, LPHN2 Lec; experiment: ELISA
[4] = molecular target: LPHN2 ecto-full domain (human); experiment: ELISA; solid-phase binding assay: LPHN2 extracellular domain variants (100 nM) coated on MaxiSorp 96-well plates, 1 h room temperature, blocked with 1% BSA; 0.001-10 μM LRG1 forms added; detected with anti-LRG1 antibody and peroxidase-conjugated secondary antibody
[5] = recombinant protein expression level; settings: glycan lost; control: LRG1 WT

| Binder | Kd [1] [nM] | expression_or_secretion [5] | also measured |
| --- | --- | --- | --- |
| Leucine-rich α-2-glycoprotein 1 (LRG1), recombinant human, glycosylated (natural protein, N-linked glycans (N-acetylglucosamine seen in the crystal) at N79, N186, N269 and N325; Alexa 647-conjugated in the FACS assay) VTLSPKDCQVFRSDHGSSISCQPPAEIPGYLPADTVHLAVEFFNLTHLPANLLQGASKLQELHLSSNGLESLSPEFLRPVPQLRVLDLTRNALTGLPPGLFQASATLDTLVLKENQLEVLEVSWLHGLKALGHLDLSGNRLRKLPPGLLANFTLLRTLDLGENQLETLPPDLLRGPLQLERLHLEGNKLQVLGKDLLLPQPDLRYLFLNGNKLARVAAGAFQGLRQLDMLDLSNNSLASVPEGLWASLGQPNWDMRDGFDISGNPWICDQNLSDLYRWLQAQKDKMFSQNDTRCAGPEAVKGQTLLAVAKSQ | 920 | – | – |
| Deglycosylated LRG1 (LRG1 treated with PNGase F) (natural protein, N-glycans removed by PNGase F; Alexa 647-conjugated in the FACS assay) VTLSPKDCQVFRSDHGSSISCQPPAEIPGYLPADTVHLAVEFFNLTHLPANLLQGASKLQELHLSSNGLESLSPEFLRPVPQLRVLDLTRNALTGLPPGLFQASATLDTLVLKENQLEVLEVSWLHGLKALGHLDLSGNRLRKLPPGLLANFTLLRTLDLGENQLETLPPDLLRGPLQLERLHLEGNKLQVLGKDLLLPQPDLRYLFLNGNKLARVAAGAFQGLRQLDMLDLSNNSLASVPEGLWASLGQPNWDMRDGFDISGNPWICDQNLSDLYRWLQAQKDKMFSQNDTRCAGPEAVKGQTLLAVAKSQ | 450 | – | Kd [2]: 450 nM; Kd [3]: 1100 nM; Kd [4]: 840 nM |
| leucine-rich α-2-glycoprotein 1 (LRG1): N79D (protein) parent chain: MSSWSRQRPKSPGGIQPHVSRTLFLLLLLAASAWGVTLSPKDCQVFRSDHGSSISCQPPAEIPGYLPADTVHLAVEFFNLTHLPANLLQGASKLQELHLSSNGLESLSPEFLRPVPQLRVLDLTRNALTGLPPGLFQASATLDTLVLKENQLEVLEVSWLHGLKALGHLDLSGNRLRKLPPGLLANFTLLRTLDLGENQLETLPPDLLRGPLQLERLHLEGNKLQVLGKDLLLPQPDLRYLFLNGNKLARVAAGAFQGLRQLDMLDLSNNSLASVPEGLWASLGQPNWDMRDGFDISGNPWICDQNLSDLYRWLQAQKDKMFSQNDTRCAGPEAVKGQTLLAVAKSQ | – | no change | – |
| leucine-rich α-2-glycoprotein 1 (LRG1): N186D (protein) parent chain: MSSWSRQRPKSPGGIQPHVSRTLFLLLLLAASAWGVTLSPKDCQVFRSDHGSSISCQPPAEIPGYLPADTVHLAVEFFNLTHLPANLLQGASKLQELHLSSNGLESLSPEFLRPVPQLRVLDLTRNALTGLPPGLFQASATLDTLVLKENQLEVLEVSWLHGLKALGHLDLSGNRLRKLPPGLLANFTLLRTLDLGENQLETLPPDLLRGPLQLERLHLEGNKLQVLGKDLLLPQPDLRYLFLNGNKLARVAAGAFQGLRQLDMLDLSNNSLASVPEGLWASLGQPNWDMRDGFDISGNPWICDQNLSDLYRWLQAQKDKMFSQNDTRCAGPEAVKGQTLLAVAKSQ | – | no change | – |
| leucine-rich α-2-glycoprotein 1 (LRG1): N325D (protein) parent chain: MSSWSRQRPKSPGGIQPHVSRTLFLLLLLAASAWGVTLSPKDCQVFRSDHGSSISCQPPAEIPGYLPADTVHLAVEFFNLTHLPANLLQGASKLQELHLSSNGLESLSPEFLRPVPQLRVLDLTRNALTGLPPGLFQASATLDTLVLKENQLEVLEVSWLHGLKALGHLDLSGNRLRKLPPGLLANFTLLRTLDLGENQLETLPPDLLRGPLQLERLHLEGNKLQVLGKDLLLPQPDLRYLFLNGNKLARVAAGAFQGLRQLDMLDLSNNSLASVPEGLWASLGQPNWDMRDGFDISGNPWICDQNLSDLYRWLQAQKDKMFSQNDTRCAGPEAVKGQTLLAVAKSQ | – | no change | – |
| leucine-rich α-2-glycoprotein 1 (LRG1): N269D (protein) parent chain: MSSWSRQRPKSPGGIQPHVSRTLFLLLLLAASAWGVTLSPKDCQVFRSDHGSSISCQPPAEIPGYLPADTVHLAVEFFNLTHLPANLLQGASKLQELHLSSNGLESLSPEFLRPVPQLRVLDLTRNALTGLPPGLFQASATLDTLVLKENQLEVLEVSWLHGLKALGHLDLSGNRLRKLPPGLLANFTLLRTLDLGENQLETLPPDLLRGPLQLERLHLEGNKLQVLGKDLLLPQPDLRYLFLNGNKLARVAAGAFQGLRQLDMLDLSNNSLASVPEGLWASLGQPNWDMRDGFDISGNPWICDQNLSDLYRWLQAQKDKMFSQNDTRCAGPEAVKGQTLLAVAKSQ | – | no change | – |
